Source: the supplement of paper PMC9732359
± gives the uncertainty stated by the source.

Experiment: protein stability index of a GFP-peptide fusion (yeast GPS) (PSI 1-4); higher = more stable; sorted into four equal gates, so the index is relative within each strain
Settings: san1∆
Method in brief: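 Plasmids isolated from each sorting gate were PCR-amplified and Illumina-sequenced, and barcodes assigned the reads to strains. The gates, four of equal size, were set by GFP/Cherry fluorescence ratio on mid-log cultures in leucine-free medium. These cultures were yeast carrying a pooled library of tiled 17-residue yeast protein peptides fused downstream of GFP on a plasmid that also expresses Cherry. The protein stability index is the sum of every gate's read frequency times its gate number.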

Sequence | protein stability index
MSGSFWTSTQRHHWQYT [SSN8] | 1.97 ± 0.13

Same assay, conditions: ubr1∆

Sequence | protein stability index
LRVEHIKHSKCRQEFLE [RPL21A] | 1.31 ± 0.11
LSATQFTQPALTLMEKA [FAS1] | 2.58 ± 0.054
LSDRANKNQDAFEAELS [ARP9] | 3.31 ± 0.057
LSDRITGNFIIPSGNVW [PRP8] | 2.9 ± 0.065
LSGKFSTIPTRENGKGG [ROX3] | 3.1 ± 0.23
LSGNSVEDVSQNAADLQ [RPL9A] | 3.31 ± 0.058
LSHGSLEHVLLVPTASF [FAS1] | 1.19 ± 0.029
LSIKNSFIINFISNLPN [NUT1] | 1.79 ± 0.04
LSIQYMIQKVMEYLKSS [RPN5] | 1.69 ± 0.11
LSISVAAEPMDSKMIQD [SNU114] | 3.18 ± 0.11
LSKVAALSGNEGDASPF [RPB2] | 2.59 ± 0.071
LSKVFSDVLFEFTKINT [YJL039C/NUP192] | 2.94 ± 0.051
LSKVSLLTPDIGAVYSG [PRE8] | 2.07 ± 0.071
LSLHTGFIENCNGSALV [MTR3] | 2.74 ± 0.067
LSLTLNTHYHADYRLIL [SNF2] | 2.65 ± 0.073
LSNIEAQFLRSVVHPGE [RPO21] | 2.97 ± 0.14
LSNIPLLLITHHSWSQS [ARP9] | 1.96 ± 0.047
LSPPEFLFHAISGREGL [RPO31] | 1.63 ± 0.046
LSPSGHKTFLVANVKDL [RPL32] | 2.84 ± 0.17
LSQVYPTLVRSVISGNL [CSN12] | 2.48 ± 0.078
LSRNGKPVMEVTSSFFY [FAS1] | 2.6 ± 0.073
LSSLILKIFQEQSLEVF [SRB8] | 2.71 ± 0.1
LSTRAGGLGLNLQTADT [SNF2] | 3.2 ± 0.058
LSYISALGMMTRISSQF [RET1] | 1.14 ± 0.054
LTATPNSINKTTVPFKE [POP1] | 2.48 ± 0.054

Sequence | protein stability index
LTGSPNNPLVQKKNFLF [ARP7] | 3.18 ± 0.066
LTKAQKYLDQVLDHQRA [RPL17B] | 2.98 ± 0.042
LTKAQKYLEQVLDHQRA [RPL17A] | 2.51 ± 0.039
LTLIFYDVLHDVFTINP [YML103C/NUP188] | 2.55 ± 0.054
LTLMEKAAFEDLKSKGL [FAS1] | 3.26 ± 0.052
LTNMMSPMGNAYSMGAQ [PGD1] | 2.68 ± 0.044
LTNQLYKNHELLKLERK [SNF2] | 3.2 ± 0.053
LTRQPTEGRSRDGGLRL [RET1] | 2.01 ± 0.059
LTSNLSNYSRTMTISHL [YJL039C/NUP192] | 2.48 ± 0.04
LTSTKVKQLENVSSNIV [RPS20] | 3.19 ± 0.075
LTVFYAIKKFKTEKDGV [SSN3] | 1.97 ± 0.085
LVAKFLYPIFLLDDKKL [YJR042W/NUP85] | 1.26 ± 0.027
LVGSWKKDRATGDADEP [RPO21] | 3.46 ± 0.081
LVSNPHEIYGSMPLEQL [SRB4] | 1.89 ± 0.1
LVTAGVAAAGITASTLL [CYT1] | 1.67 ± 0.044
LWGPHGLNSDAEEVRNF [ECM29] | 3.82 ± 0.16
LWNLNAYRTDVIQALGG [PRP8] | 1.93 ± 0.041
LYASDYASYFPYLLETY [RPN7] | 1.18 ± 0.044
LYEKLKQEIMMSDLFTF [ISW2] | 2.64 ± 0.06
LYFYRDPEEVEQQVAEE [RPS0A] | 3.56 ± 0.076
LYHHTTKTILSGTDGST [SRP72] | 2.83 ± 0.043
LYQSLTPQQLQMIQQRH [SNF5] | 2.08 ± 0.033
LYVPHSENRFPGWDFET [RPL5] | 2.68 ± 0.13
MAAALPNPTPSMINSVS [PGD1] | 2.1 ± 0.045
MAATATDKIGRSVPAPG [FAS2] | 3.01 ± 0.053

Sequence | protein stability index
MAGVKAYELRTKSKEQL [RPL35A] | 3.17 ± 0.13
MAPNTSRKQKIAKTFTV [RPL22A] | 2.03 ± 0.092
MAQTATQQQPGAPGANA [SRP54] | 3.21 ± 0.05
MARRPARCYRYQKNKPY [RPL10] | 2.4 ± 0.1
MARTKQTARKSTGGKAP [HHT1] | 3.39 ± 0.092
MASYMLNSFAFELCSLG [YJR042W/NUP85] | 1.5 ± 0.23
MATIASEYSSEASNTPI [PRE7] | 2.93 ± 0.13
MATNRADTLDPALLRPG [RPT3] | 2.79 ± 0.28
MCVSKGNASLKYIALQV [YCG1] | 2.6 ± 0.084
MDETQTRAKIGGLNDPR [RPO21] | 1.85 ± 0.22
MDKKILLNINGSRKVAG [SMX2] | 2.11 ± 0.047
MDMNEIEDKENSESTTQ [RPT5] | 3.21 ± 0.098
MDRDSESEEAETKDIRK [SRB4] | 2.95 ± 0.16
MDSKGKITIGIQRTTES [RGR1] | 3.11 ± 0.075
MEERDGAKFENIVHNFK [AAR2] | 1.88 ± 0.056
MEKDKLKNLLRSNFRVN [SNU114] | 2.65 ± 0.087
MENTLGEGSTVNASVDV [SWI3] | 3.54 ± 0.21
METRINILLRERDSYKL [YIL149C/MLP2] | 2.3 ± 0.15
MFNDLNSMDISMFSGLD [MED2] | 3.12 ± 0.052
MGMDLYKTSKAAQDVWN [FAS1] | 3.43 ± 0.077
MIAKEVKTSPDAKKCIA [FAS1] | 2.05 ± 0.12
MIDLGFEDQVTNILTKV [PRP28] | 3.16 ± 0.19
MIIFLKNYDATDKPFSS [CSI1] | 2.92 ± 0.048
MIYDDAHEISQGVYGAV [BRR2] | 2.67 ± 0.045
MKDRLVEWNDQVEKLGK [RPN9] | 3.39 ± 0.085

Sequence | protein stability index
MKIQAGQLGLDDNDVPG [YLR018C/POM34] | 3.11 ± 0.29
MKNKAETTTEEDSENPS [ITC1] | 3.31 ± 0.15
MKQPYVFVKKHHELIKV [SSN2] | 1.2 ± 0.051
MLETAGFSMNNPYNIVP [SMC3] | 3.09 ± 0.051
MLGIRSSVKTCFKPMSL [RIP1] | 2.9 ± 0.052
MLGRAGRPRYDTFGEGI [BRR2] | 3.31 ± 0.15
MLKYRRLFIGDQNNKKM [SNF2] | 2.63 ± 0.057
MLMPKQERNKIHQYLFQ [RPS10B] | 2.78 ± 0.1
MLNLIDDVKNILNAKYT [RPN6] | 2.86 ± 0.068
MMQDPQMQQMAKQFGMG [SRP54] | 2.75 ± 0.027
MMTRRVVMAMYNPKMID [RET1] | 3.05 ± 0.094
MMVSYPKIDEDDTWYNL [AAR2] | 3.35 ± 0.045
MNETLNLKVELKEQSEQ [SMC4] | 3.42 ± 0.12
MNGNSTNNEQLQQELAT [NUT2] | 3.07 ± 0.062
MNRRKIAMPKRRMAFKP [YLR335W/NUP2] | 3.13 ± 0.13
MNTTLGSIGSRKYSFNY [YAR002W/NUP60] | 1.41 ± 0.041
MNTVPFTSAPIEVTIGI [AAR2] | 1.64 ± 0.083
MPFWKFFMKNFPFVLKV [SRB8] | 2.04 ± 0.1
MPGVSVRDVAAQDFINA [RPS19A] | 1.16 ± 0.11
MPKKRASNGRNKKGRGH [RPS26A] | 3.5 ± 0.083
MSANGFAADGDALVKRF [PRE7] | 3.41 ± 0.053
MSAVPSVQTFGKKKSAT [RPS16A] | 1.22 ± 0.13
MSDAVTIRTRKVISNPL [RPS24A] | 2.23 ± 0.14
MSDLFTFDWFIKTRTVH [ISW2] | 3.21 ± 0.072
MSGSFWTSTQRHHWQYT [SSN8] | 2.23 ± 0.099
